The supplement of paper PMC11316812
± gives the standard deviation of the averaged measurements.

Key:
MCF7 = assay: percentage of EdU-negative (G0-arrested) nuclei per well, 72 h; higher = more G0 arrest; settings: reference: sequence is the full UniProt precursor, the tested protein was the secreted form or ectodomain
hTERT-HMEC = assay: as above; settings: reference: sequence is the full UniProt precursor, the tested protein was the secreted form or ectodomain
[1] = protein concentration 0.03034 µM
[2] = protein concentration 0.3034 µM
[3] = protein concentration 0.0225 µM
[4] = protein concentration 0.0257143 µM
[5] = protein concentration 0.257143 µM
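Further: secreted proteins added to cultured cells, EdU pulse at the end, nuclei found by Hoechst imaging, EdU status from nuclear versus surrounding ring intensity ratio, PBS as neutral control.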

| Sequence | percentage of EdU-negative (MCF7; [3]) | percentage of EdU-negative (MCF7; protein concentration 0.225 µM) | percentage of EdU-negative (hTERT-HMEC; [3]) | percentage of EdU-negative (hTERT-HMEC; protein concentration 0.225 µM) | also measured |
| --- | --- | --- | --- | --- | --- |
| MQGAQEASASEMLPLLLPLLWAGALAQERRFQLEGPESLTVQEGLCVLVPCRLPTTLPASYYGYGYWFLEGADVPVATNDPDEEVQEETRGRFHLLWDPRRKNCSLSIRDARRRDNAAYFFRLKSKWMKYGYTSSKLSVRVMALTHRPNISIPGTLESGHPSNLTCSVPWVCEQGTPPIFSWMSAAPTSLGPRTTQSSVLTITPRPQDHSTNLTCQVTFPGAGVTMERTIQLNVSYAPQKVAISIFQGNSAAFKILQNTSSLPVLEGQALRLLCDADGNPPAHLSWFQGFPALNATPISNTGVLELPQVGSAEEGDFTCRAQHPLGSLQISLSLFVHWKPEGRAGGVLGAVWGASITTLVFLCVCFIFRVKTRRKKAAQPVQNTDDVNPVMVSGSRGHQHQFQTGIVSDHPAEAGPISEDEQELHYAVLHFHKVQPQEPKVTDTEYSEIKIHK | – | – | – | – | percentage of EdU-negative (MCF7; [1]): 22.4 ± 2.3%; percentage of EdU-negative (MCF7; [2]): 27.1 ± 0.29%; percentage of EdU-negative (hTERT-HMEC; [1]): 5.1074 ± 0.0018%; percentage of EdU-negative (hTERT-HMEC; [2]): 5.306 ± 0.046% |
| MQGPWVLLLLGLRLQLSLGIIPVEEENPDFWNRQAAEALGAAKKLQPAQTAAKNLIIFLGDGMGVSTVTAARILKGQKKDKLGPETFLAMDRFPYVALSKTYSVDKHVPDSGATATAYLCGVKGNFQTIGLSAAARFNQCNTTRGNEVISVMNRAKKAGKSVGVVTTTRVQHASPAGAYAHTVNRNWYSDADVPASARQEGCQDIATQLISNMDIDVILGGGRKYMFPMGTPDPEYPDDYSQGGTRLDGKNLVQEWLAKHQGARYVWNRTELLQASLDPSVTHLMGLFEPGDMKYEIHRDSTLDPSLMEMTEAALLLLSRNPRGFFLFVEGGRIDHGHHESRAYRALTETIMFDDAIERAGQLTSEEDTLSLVTADHSHVFSFGGYPLRGSSIFGLAPGKARDRKAYTVLLYGNGPGYVLKDGARPDVTESESGSPEYRQQSAVPLDGETHAGEDVAVFARGPQAHLVHGVQEQTFIAHVMAFAACLEPYTACDLAPRAGTTDAAHPGPSVVPALLPLLAGTLLLLGTATAP | 23.9 ± 3.7% | 27.2 ± 0.72% | 4.62 ± 0.18% | 5.34 ± 0.29% | – |
| MQGPWVLLLLGLRLQLSLGVIPAEEENPAFWNRQAAEALDAAKKLQPIQKVAKNLILFLGDGLGVPTVTATRILKGQKNGKLGPETPLAMDRFPYLALSKTYNVDRQVPDSAATATAYLCGVKANFQTIGLSAAARFNQCNTTRGNEVISVMNRAKQAGKSVGVVTTTRVQHASPAGTYAHTVNRNWYSDADMPASARQEGCQDIATQLISNMDIDVILGGGRKYMFPMGTPDPEYPADASQNGIRLDGKNLVQEWLAKHQGAWYVWNRTELMQASLDQSVTHLMGLFEPGDTKYEIHRDPTLDPSLMEMTEAALRLLSRNPRGFYLFVEGGRIDHGHHEGVAYQALTEAVMFDDAIERAGQLTSEEDTLTLVTADHSHVFSFGGYTLRGSSIFGLAPSKAQDSKAYTSILYGNGPGYVFNSGVRPDVNESESGSPDYQQQAAVPLSSETHGGEDVAVFARGPQAHLVHGVQEQSFVAHVMAFAACLEPYTACDLAPPACTTDAAHPVAASLPLLAGTLLLLGASAAP | 24.8 ± 1.8% | 24.4 ± 0.42% | 5.37 ± 0.33% | 6.16 ± 1.5% | – |
| MQIITTALVCLLLAGMWPEDVDSKSMQVPFSRCCFSFAEQEIPLRAILCYRNTSSICSNEGLIFKLKRGKEACALDTVGWVQRHRKMLRHCPSKRK | 24.1 ± 3.4% | 25.4 ± 0.28% | 4.79 ± 0.52% | 12 ± 1.1% | – |
| MQKVTLGLLVFLAGFPVLDANDLEDKNSPFYYDWHSLQVGGLICAGVLCAMGIIIVMSAKCKCKFGQKSGHHPGETPPLITPGSAQS | – | – | – | – | percentage of EdU-negative (MCF7; [4]): 26.4 ± 0.91%; percentage of EdU-negative (MCF7; [5]): 24.9 ± 1%; percentage of EdU-negative (hTERT-HMEC; [4]): 4.87 ± 0.45%; percentage of EdU-negative (hTERT-HMEC; [5]): 4.969 ± 0.0066% |
| MQLPLALCLVCLLVHTAFRVVEGQGWQAFKNDATEIIPELGEYPEPPPELENNKTMNRAENGGRPPHHPFETKDVSEYSCRELHFTRYVTDGPCRSAKPVTELVCSGQCGPARLLPNAIGRGKWWRPSGPDFRCIPDRYRAQRVQLLCPGGEAPRARKVRLVASCKCKRLTRFHNQSELKDFGTEAARPQKGRKPRPRARSAKANQAELENAY [Q9BQB4] | 28.1 ± 1.4% | 34 ± 2% | 5.07 ± 1.1% | 18.6 ± 2.6% | – |
| MQLQASLSFLLILTLCLELRSELARDTIKDLLPNVCAFPMEKGPCQTYMTRWFFNFETGECELFAYGGCGGNSNNFLRKEKCEKFCKFT | – | – | – | – | percentage of EdU-negative (MCF7; [4]): 25.8 ± 1.5%; percentage of EdU-negative (MCF7; [5]): 24.81 ± 0.086%; percentage of EdU-negative (hTERT-HMEC; [4]): 4.34 ± 0.046%; percentage of EdU-negative (hTERT-HMEC; [5]): 4.94 ± 0.32% |
| MQLRNPELHLGCALALRFLALVSWDIPGARALDNGLARTPTMGWLHWERFMCNLDCQEEPDSCISEKLFMEMAELMVSEGWKDAGYEYLCIDDCWMAPQRDSEGRLQADPQRFPHGIRQLANYVHSKGLKLGIYADVGNKTCAGFPGSFGYYDIDAQTFADWGVDLLKFDGCYCDSLENLADGYKHMSLALNRTGRSIVYSCEWPLYMWPFQKPNYTEIRQYCNHWRNFADIDDSWKSIKSILDWTSFNQERIVDVAGPGGWNDPDMLVIGNFGLSWNQQVTQMALWAIMAAPLFMSNDLRHISPQAKALLQDKDVIAINQDPLGKQGYQLRQGDNFEVWERPLSGLAWAVAMINRQEIGGPRSYTIAVASLGKGVACNPACFITQLLPVKRKLGFYEWTSRLRSHINPTGTVLLQLENTMQMSLKDLL | – | – | – | – | percentage of EdU-negative (MCF7; protein concentration 0.021 µM): 24.8 ± 0.73%; percentage of EdU-negative (MCF7; protein concentration 0.21 µM): 24.3 ± 0.28%; percentage of EdU-negative (hTERT-HMEC; protein concentration 0.021 µM): 5.25 ± 0.8%; percentage of EdU-negative (hTERT-HMEC; protein concentration 0.21 µM): 4.6 ± 0.74% |
| MQLTRCCFVFLVQGSLYLVICGQDDGPPGSEDPERDDHEGQPRPRVPRKRGHISPKSRPMANSTLLGLLAPPGEAWGILGQPPNRPNHSPPPSAKVKKIFGWGDFYSNIKTVALNLLVTGKIVDHGNGTFSVHFQHNATGQGNISISLVPPSKAVEFHQEQQIFIEAKASKIFNCRMEWEKVERGRRTSLCTHDPAKICSRDHAQSSATWSCSQPFKVVCVYIAFYSTDYRLVQKVCPDYNYHSDTPYYPSG | 28.1 ± 0.43% | 31.8 ± 2.5% | 6.5 ± 0.97% | 6.09 ± 1.7% | – |
